# Biological target: HMG1 purified from calf (bovine) thymus (bovine) (UniProt P10103)
# Assay: cell-based or functional assay
# Sequence of HMG1 purified from calf (bovine) thymus (bovine) (P10103 2-215 limits assumed): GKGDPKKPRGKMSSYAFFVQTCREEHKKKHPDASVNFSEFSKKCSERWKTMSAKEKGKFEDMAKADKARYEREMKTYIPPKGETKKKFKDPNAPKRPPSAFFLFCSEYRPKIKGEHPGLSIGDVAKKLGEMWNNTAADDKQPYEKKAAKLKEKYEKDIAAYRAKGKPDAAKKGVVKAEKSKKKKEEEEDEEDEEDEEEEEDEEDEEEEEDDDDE
substance,measurement,value
RAGE-Fc fusion protein (species not stated),IFN-α release (HMGB/CpG-A mediated enhanced TLR9 signaling),> 95%

# From patent US20110287023A1
